For four molecules, biological activity in vitro (tyrosine hydroxylase reporter gene, luciferase, TGW cells), EC50 and reporter gene activity (luciferase, SRE reporter in TGW cells), EC50 results are on record in US20160060317A1.

The assay addresses receptors for neurturin on the cell surface of human neuroblastoma cell line TGW (JCRB0618). Briefly: cell-based or functional assay.

B1: human recombinant neurturin (unmodified protein), Q99748 96-197 (ligand)
chain: ARLGARPCGLRELEVRVSELGLGYASDETVLFRYCAGACEAAARVYDLGLRRLRQRRRLRRERVRAQPCCRPTAYEDEVSFLDAHSRYHTVHELSARECACV
B1 showed a biological activity in vitro (tyrosine hydroxylase reporter gene, luciferase, TGW cells), EC50 of 2.2 ng/ml.

B2: mono-mPEG-NHS-neurturin, Q99748 96-197; Q99748 96-197 (ligand)
chain 1: B1 chain
chain 2: B1 chain
modifications: here or on the partner: about 5 kDa linear PEG (mPEG-succinimidyl succinat reagent, NHS-method) on the N-terminal amino acid
The molecule B2 came in with a reporter gene activity (luciferase, SRE reporter in TGW cells), EC50 of 9.7 ng/mL.

B3: mono-mPEG-CHO-neurturin, Q99748 96-197; Q99748 96-197 (ligand)
chain 1: B1 chain
chain 2: B1 chain
modifications: here or on the partner: linear 5 kDa polyethylene glycol butyraldehyde-derived PEG on the N-terminal amino acid
The molecule B3 yielded a reporter gene activity (luciferase, SRE reporter in TGW cells), EC50 of 7.4 ng/mL.

B4: mono-CES0310-neurturin, Q99748 96-197; Q99748 96-197 (ligand)
chain 1: B1 chain
chain 2: B1 chain
modifications: here or on the partner: six-arm branched PEG of about 5 kDa on the N-terminal amino acid
For B4, the reporter gene activity (luciferase, SRE reporter in TGW cells), EC50 came out at 12 ng/mL.
